Results reported in the supplement of paper PMC10567573.
± gives the standard deviation.

Assay: protein stability index of a GFP-peptide fusion (GPS, HEK-293T) (PSI 1-6); higher = more stable
[1] = treatment: DMSO, c terminus: a fixed tail appended
[2] = treatment: MLN4924 1 uM, 8 h, c terminus: a fixed tail appended
[3] = treatment: DMSO, c terminus: native
[4] = treatment: MLN4924 1 uM, 8 h, c terminus: native
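Also: 24-mer peptide tiles fused after GFP, lentivirally expressed, FACS-sorted into six equal bins by GFP/DsRed ratio, decoded by Illumina sequencing, PSI is the read-weighted mean bin number.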

Sequence | protein stability index [1] | protein stability index [2] | protein stability index [3] | protein stability index [4]
EVETEGPESADTGDKSESPDEANV [TOR1AIP2] | 5.32 ± 0.41 | 5.58 ± 0.3 | – | –
AQPQGAPCCSSSPEEPLNGESYES [FEM1A] | 5.41 ± 0.19 | 5.53 ± 0.2 | – | –
ELADHIERLKANDNLKFSQEYESI [PTPRD] | 3.48 ± 0.25 | 3.74 ± 0.28 | – | –
DELIPEYLNFIRGVVDSEDLPLNI [HSP90AB1] | 3.22 ± 0.38 | 3.3 ± 0.47 | – | –
NNPISEHFHPTVIGESMYGDFEEA [TENT5C] | 4.89 ± 0.28 | 4.89 ± 0.17 | – | –
PGSLLCTVAASDPDTGDNARLTYS [PCDHGC5] | 4.12 ± 0.29 | 4 ± 0.14 | – | –
DWEAVPQRKLKPPIVPKIAGDGDT [PRKX] | 4.9 ± 0.21 | 4.87 ± 0.24 | – | –
QHSHVVRYFSAWAEDDHMLIQNEY [WEE1] | 2.22 ± 0.14 | 2.24 ± 0.12 | – | –
LFVTFLLIYMVTIMGNLLIIVTIM [OR4A15] | 3.06 ± 0.41 | 3.29 ± 0.53 | – | –
MAVLEEIQQELIKQEQSIISEYEK [RPAIN] | 4.28 ± 0.16 | 4.47 ± 0.16 | – | –
SPVNMVTVAMVAGQCEFAHILHS [ZNF649] | – | – | 2.08 ± 0.19 | 1.87 ± 0.25
RADQLCQQELRELRRELELLGRER [PRPH] | 3.45 ± 0.17 | 3.37 ± 0.56 | – | –
LGNGNDKKEMNKSDLNTNNLLFKP [KMT2E] | 4.65 ± 0.25 | 4.34 ± 0.32 | – | –
IFYDLVRQINRKTPVPGKARKKSS [RAP1B] | 2.47 ± 0.47 | 2.37 ± 0.4 | – | –
ERSQEESPPGSTKRRKSMSGASPK [CDC25A] | 5.48 ± 0.19 | 5.46 ± 0.12 | – | –
RDRLLNRYRQAGSSGPGNSQNSFL [RPAIN] | 3.36 ± 0.32 | 3.56 ± 0.38 | – | –
AALHMVIVAAFTWAFTLFFEVSE [KMT2E] | – | – | 2.48 ± 0.21 | 2.34 ± 0.16
VKKSCWTEEEDRIICEAHKVLGNR [MYBL2] | 3.33 ± 0.52 | 3.58 ± 0.34 | – | –
SSIVWRFVEDSFDPNINPTIGASF [RAB22A] | 2.31 ± 0.57 | 1.71 ± 0.47 | – | –
SSQGVATPAITVSNSCPAELPNIK [TFE3] | 5 ± 0.11 | 4.96 ± 0.24 | – | –
ELERIGPQHQAGSDSLLTGMAFFK [CNOT7] | 3.25 ± 0.34 | 3.62 ± 0.11 | – | –
MGWEGPNSRVDDTFWASWRAFAQI [MIR22HG] | 2.45 ± 0.28 | 2.21 ± 0.17 | – | –

Sequence | protein stability index [1] | protein stability index [2] | protein stability index [3] | protein stability index [4]
SEDRRSRHCPYLDTINRSVLDFDF [USP39] | 3.18 ± 0.074 | 3.44 ± 0.3 | – | –
KDGVTMAPAFRLSLKAKVSDNMSH [FSD1] | 3.56 ± 0.35 | 3.75 ± 0.26 | – | –
TPLASSTDHQTPPTSPVQGTTPQI [HDAC6] | 5.17 ± 0.16 | 5.03 ± 0.16 | – | –
VVEEVRRRATSGGKWPQVLFFPEG [LPCAT4] | 2.75 ± 0.31 | 3.24 ± 0.26 | – | –
LPRKRQSLRSSSSKLAQLTLEQIL [INTS3] | 2.34 ± 0.19 | 2.44 ± 0.12 | – | –
HGVLSAEGFLFVFGGQDENKQTLS [GAN] | 2.43 ± 0.27 | 2.65 ± 0.073 | – | –
LRQLRELEEQFALEAGGYQAGAAR [PRPH] | 4.07 ± 0.3 | 4.24 ± 0.084 | – | –
ADISEAEQRTIQAQKESLQNQHHS [APBB1IP] | 5.2 ± 0.38 | 5.23 ± 0.15 | – | –
QFAAEYTSKNSSTQDPSQPNSTKN [LCOR] | 5.22 ± 0.15 | 5.36 ± 0.08 | – | –
PCAGLNCQALDANLDANLAFASFT [TLE6] | 2.98 ± 0.33 | 2.99 ± 0.28 | – | –
NRQCLCSAESMVEYGTCMCLVKGI [SPRY1] | 3.82 ± 0.28 | 3.83 ± 0.26 | – | –
MQRLVAWDPACLPLPPPPPAFKSM [CEBPB] | 2.63 ± 0.39 | 2.91 ± 0.39 | – | –
DRLVVTECQLTHSHPACPLEFAYY [ZSWIM9] | 2.53 ± 0.31 | 2.53 ± 0.32 | – | –
EVIYPQHSKLTDREKTNICYLSFP [DENND6A] | 2.2 ± 0.43 | 2.54 ± 0.38 | – | –
GVMLTWPDGLMYQKFRNQFLSFSM [TMEM120A] | 2.89 ± 0.98 | 2.69 ± 0.43 | – | –
ESLTEDEATQFLKQILDGVHYLHS [DAPK3] | 3.06 ± 0.28 | 3.29 ± 0.28 | – | –
EEETVTTKHIHITQATETTTTRHK [CLINT1] | 5.15 ± 0.2 | 5.19 ± 0.44 | – | –
LPMATVDIKNPEITTNRFYGPQVN [WASL] | 3.4 ± 0.75 | 3.54 ± 0.34 | – | –
PSSSSIHNGDMEKILLDAQHESGQ [BNIP3L] | 5.12 ± 0.14 | 5.27 ± 0.096 | – | –
GLGFASNAFQETWYWHGDVNSNKV [LOXL2] | 3.04 ± 0.12 | 2.44 ± 0.29 | – | –
QVNRRSAKGNTALHDCAESGSLEI [FEM1A] | 4.56 ± 0.049 | 4.26 ± 0.21 | – | –
RDIRCSEDEKLCDPNTRPVGEKNC [ADAMTSL2] | 5.18 ± 0.28 | 5.35 ± 0.22 | – | –
